{"source": "patent US12723255B2", "about": "“Herbicide tolerance genes and methods of use thereof” (priority 2014, dated 2026)", "molecules": {"B1": {"name": "MON-HT2: engineered oxygenase protein, amino acid sequence SEQ ID NO:18 (protein)", "chain": "MHAALTPLTNKYRFIDVQPLTGVLGAEITGVDLREPLDDSTWNEILDAFHTYQVIYFPGQAITNEQHIAFSRRFGPVDPVPLLKSIEGYPEVQMIRREANESSRVIGDDWHSDSTFLDAPPAAVVMRAIEVPEYGGDTGFLSMYSAWETLSPTMQATIEGLNVVHSATKVFGSLYQATNWRFSNTSVKVMDVDAGDRETVHPLVVTHPVTGRRALYCNQVYCQKIQGMTDAESKSLLQFLYEHATKFDFTCRVRWKKDQVLVWDNLCTMHRAAPDYAGKFRYLTRTTVAGDKPSR"}}, "key": {"transgenic maize plants": {"tested_on": "transgenic maize plants", "assay": "trait efficacy field trials with homozygous inbred plants, CTP evaluation", "format": "in vivo", "settings": "crop injury percentage", "excerpt": "To evaluate different chloroplast targeting peptides (CTP), plant transformation vectors were constructed, each comprising a recombinant DNA molecule optimized for monocot expression and encoding MON-HTI (SEQ ID NO: 16), MON-HT2 (SEQ ID NO:20), and MON-HT8 (SEQ ID NO:39), MON-HT9 (SEQ ID NO:42), or MON-HT10 (SEQ ID NO:45). The vectors were created using the same combination of promoter, leader, intron, and 3′-UTR, but with one of three separate CTPs (A, B, or C) or without a CTP operably linked to the protein-coding sequence. The DNA constructs were used to transform immature maize (LH244) embryos using Agrobacterium tumifaciens and standard methods known in the art. Regenerated RO transgenic plantlets were grown in the green house. The R0 plants were selfed to generate R1 homozygous seed. The R0 plants were also used as the male to cross with inbred plants containing maize event MON89034 to generate segregating F1 hybrid seed for trait efficacy field trials.\nSeparate trait efficacy field trials for quizalofop-P and 2,4-D were conducted at two locations each with the homozygous inbred transgenic plants (R2 or R4 generation). In these field trials, one of two herbicide treatments was used: (1) quizalofop-P (Assure II) at 0.16 lb ai/acre (2×) plus 0.25% v/v non-ionic surfactant (NIS) applied at V4 growth stage followed by the same at V8 growth stage; or (2) 2,4-D amine at 2 lb ae/acre (2×) plus 0.25% v/v non-ionic surfactant (NIS) applied to V4 followed by V8. Injury ratings (crop injury percentage at V4 (CIPV4) or V8 (CIPV8)) were taken 10 to 14 days after the V4 and V8 applications. Error was calculated using LSD (0.05)."}, "[1]": {"tested_on": "mRNA transcribed from the transgene cassette", "assay": "Quantigene analysis of transgene mRNA expression in leaf samples", "settings": "normalized to maize housekeeping genes, average of eight samples", "excerpt": "Leaf samples were collected from the plants containing transgene cassettes encoding MON-HT1, MON-HT2, and MON-HT8 with and without CTP sequences to determine expression of the mRNA transcribed from the transgene cassette encoding the engineered proteins. Quantigene® analysis was done on the leaf sample extracts to determine mRNA expression of the transgene cassette. For these assays, the probe was to the common 3′-UTR sequence present in each expression cassette used to generate the transgenic plants. Relative expression was calculated by normalizing to maize housekeeping genes. A leaf sample was collected from each of eight plants for each construct configuration used to make the transgenic plants, and the reported relative mRNA expression data is an average of the eight samples with standard error."}, "F1 hybrid maize plants": {"tested_on": "F1 hybrid maize plants", "assay": "trait efficacy field trial, 2,4-D pressure screening, F1 hybrid", "format": "in vivo", "settings": "crop injury percentage; for 4X 2,4-D CIPV4 / 4X 2,4-D CIPV8: 4 lb ae/acre at VE-V2, V4, V8; for 8X 2,4-D CIPV4 / 8X 2,4-D CIPV8: 8 lb ae/acre at VE-V2, V4, V8; for 16X 2,4-D CIPV4 / 16X 2,4-D CIPV8: 16 lb ae/acre at VE-V2, V4, V8", "procedure": "Separate trait efficacy field trials for quizalofop-P and 2,4-D pressure screening were conducted at one location each with F1 hybrid transgenic plants produced by crossing an inbred plant containing maize event MON89034 with an R1 plant containing MON-HT1, MON-HT2, MON-HT8, MON-HT9, and MON-HT10 with and without operably linked CTP sequences. Transgenic F1 hybrid plants containing maize events NK603×MON89034 were used for comparison as a control.\nThree herbicide treatments were used in the trait efficacy field trial for 2,4-D tolerance: (1) 2,4-D amine at 4 lb ac/acre (4×) plus 0.25% v/v NIS applied to VE-V2 followed by V4 followed by V8; (2) 2,4-D amine at 8 lb ac/acre (8×) plus 0.25% v/v NIS applied to VE-V2 followed by V4followed by V8 maize; or (3) 2,4-D amine at 16 lb ac/acre (16×) plus 0.25% v/v NIS applied to VE-V2 followed by V4 followed by V8. Plots were visually rated as above.\nThe injury rating for the control plants after all 2,4-D applications ranged from 80% to 96.25%. At the highest rate of 2,4-D (16×) applied through V8, the plants containing MON-HT1 or MON-HT2 operably linked to any of the three CTPs (A, B, or C) had better tolerance than plants containing MON-HT1 or MON-HT2 not operably linked to a CTP. Plants containing MON-HT1, MON-HT2, or MON-HT8 with or without an operably linked CTP had better tolerance to 2,4-D at all applications tested compared to plants containing either MON-HT9 or MON-HT10 with an operably linked ‘A’ CTP. Over the range of 2,4-D applications the relative ranking of tolerance was: plants containing MON-HT1 had better tolerance than plants containing MON-HT2 which were in turn better than plants containing MON-HT8. […] Error was calculated using LSD (0.05)."}, "[2]": {"tested_on": "transgenic soybean plants", "assay": "R0 soybean green house 2,4-D spray test", "format": "in vivo", "settings": "CTP No, 2,4-D rate 0.5X, single copy R0 soy events", "excerpt": "Two engineered proteins were selected for analysis in transgenic soybean. DNA constructs were produced for expressing MON-HT1 (SEQ ID NO:14) and MON-HT2 (SEQ ID NO:18) with codon usage optimized for dicot expression using methods known to those skilled in the art. Enhancers, promoters, leaders, introns, CTPs, and 3′UTRs in various combinations were operably linked to the engineered proteins in these DNA constructs. The DNA constructs were used to transform soybean using Agrobacterium tumifaciens and standard methods known in the art. Regenerated R0 transgenic plantlets were grown in the green house. Approximately 9 weeks after transformation at the 1-2 trifoliate leaf stage, single copy R0 events were identified and sprayed with 2,4-D herbicide at a rate of 0.5× (0.375 lb ae/acre), 2× (1.5 lb ae/acre), or 4× (3.0 lb ae/acre). Approximately 2 weeks after herbicide application, the plants were rated for herbicide injury on a scale of 1 to 3, where 1=little to no injury (<20%), 2=moderate injury (20-50%) and 3=severe injury (>50%)."}, "[3]": {"settings": "CTP B, 0.16 lb ai/acre at V4, V8"}, "[4]": {"settings": "CTP C, 0.16 lb ai/acre at V4, V8"}, "[5]": {"settings": "no CTP, 0.16 lb ai/acre at V4, V8"}}, "data": [{"molecule": "B1", "values": [{"measurement": "2X Quizalofop-P CIPV4", "setting": "transgenic maize plants; CTP A, 0.16 lb ai/acre at V4, V8, LSD (0.05) = 1.45", "value": 0}, {"measurement": "2X Quizalofop-P CIPV8", "setting": "transgenic maize plants; CTP A, 0.16 lb ai/acre at V4, V8, LSD (0.05) = 2.2", "value": 1.875}, {"measurement": "2X 2,4-D CIPV4", "setting": "transgenic maize plants; CTP A, 2 lb ae/acre at V4, V8, LSD (0.05) = 0.95", "value": 0.875}, {"measurement": "2X 2,4-D CIPV8", "setting": "transgenic maize plants; CTP A, 2 lb ae/acre at V4, V8, LSD (0.05) = 1.6", "value": 1.25}, {"measurement": "2X Quizalofop-P CIPV4", "setting": "transgenic maize plants; [3]", "value": 0}, {"measurement": "2X Quizalofop-P CIPV8", "setting": "transgenic maize plants; [3]", "value": 0}, {"measurement": "2X 2,4-D CIPV4", "setting": "transgenic maize plants; CTP B, 2 lb ae/acre at V4, V8", "value": 0}, {"measurement": "2X 2,4-D CIPV8", "setting": "transgenic maize plants; CTP B, 2 lb ae/acre at V4, V8", "value": 2.5}, {"measurement": "2X Quizalofop-P CIPV4", "setting": "transgenic maize plants; [4]", "value": 0}, {"measurement": "2X Quizalofop-P CIPV8", "setting": "transgenic maize plants; [4]", "value": 2}, {"measurement": "2X 2,4-D CIPV4", "setting": "transgenic maize plants; CTP C, 2 lb ae/acre at V4, V8", "value": 0}, {"measurement": "2X 2,4-D CIPV8", "setting": "transgenic maize plants; CTP C, 2 lb ae/acre at V4, V8", "value": 1.25}, {"measurement": "2X Quizalofop-P CIPV4", "setting": "transgenic maize plants; [5]", "value": 1.25}, {"measurement": "2X Quizalofop-P CIPV8", "setting": "transgenic maize plants; [5]", "value": 3.5}, {"measurement": "2X 2,4-D CIPV4", "setting": "transgenic maize plants; no CTP, 2 lb ae/acre at V4, V8", "value": 0}, {"measurement": "2X 2,4-D CIPV8", "setting": "transgenic maize plants; no CTP, 2 lb ae/acre at V4, V8", "value": 2.5}, {"measurement": "Relative Expression", "setting": "[1]; CTP A", "value": 6.96}, {"measurement": "Relative Expression", "setting": "[1]; CTP B", "value": 6.16}, {"measurement": "Relative Expression", "setting": "[1]; CTP C", "value": 4.11}, {"measurement": "Relative Expression", "setting": "[1]; no CTP", "value": 4.66}, {"measurement": "4X 2,4-D CIPV4", "setting": "F1 hybrid maize plants; CTP A", "value": 5}, {"measurement": "4X 2,4-D CIPV8", "setting": "F1 hybrid maize plants; CTP A", "value": 5}, {"measurement": "8X 2,4-D CIPV4", "setting": "F1 hybrid maize plants; CTP A", "value": 10}, {"measurement": "8X 2,4-D CIPV8", "setting": "F1 hybrid maize plants; CTP A", "value": 7.5}, {"measurement": "16X 2,4-D CIPV4", "setting": "F1 hybrid maize plants; CTP A", "value": 10}, {"measurement": "16X 2,4-D CIPV8", "setting": "F1 hybrid maize plants; CTP A", "value": 20}, {"measurement": "4X 2,4-D CIPV4", "setting": "F1 hybrid maize plants; CTP B", "value": 5}, {"measurement": "4X 2,4-D CIPV8", "setting": "F1 hybrid maize plants; CTP B", "value": 5}, {"measurement": "8X 2,4-D CIPV4", "setting": "F1 hybrid maize plants; CTP B", "value": 5}, {"measurement": "8X 2,4-D CIPV8", "setting": "F1 hybrid maize plants; CTP B", "value": 10}, {"measurement": "16X 2,4-D CIPV4", "setting": "F1 hybrid maize plants; CTP B", "value": 10}, {"measurement": "16X 2,4-D CIPV8", "setting": "F1 hybrid maize plants; CTP B", "value": 25}, {"measurement": "4X 2,4-D CIPV4", "setting": "F1 hybrid maize plants; CTP C", "value": 10}, {"measurement": "4X 2,4-D CIPV8", "setting": "F1 hybrid maize plants; CTP C", "value": 15}, {"measurement": "8X 2,4-D CIPV4", "setting": "F1 hybrid maize plants; CTP C", "value": 10}, {"measurement": "8X 2,4-D CIPV8", "setting": "F1 hybrid maize plants; CTP C", "value": 10}, {"measurement": "16X 2,4-D CIPV4", "setting": "F1 hybrid maize plants; CTP C", "value": 15}, {"measurement": "16X 2,4-D CIPV8", "setting": "F1 hybrid maize plants; CTP C", "value": 20}, {"measurement": "4X 2,4-D CIPV4", "setting": "F1 hybrid maize plants; no CTP", "value": 7.5}, {"measurement": "4X 2,4-D CIPV8", "setting": "F1 hybrid maize plants; no CTP", "value": 7.5}, {"measurement": "8X 2,4-D CIPV4", "setting": "F1 hybrid maize plants; no CTP", "value": 17.5}, {"measurement": "8X 2,4-D CIPV8", "setting": "F1 hybrid maize plants; no CTP", "value": 42.5}, {"measurement": "16X 2,4-D CIPV4", "setting": "F1 hybrid maize plants; no CTP", "value": 25}, {"measurement": "16X 2,4-D CIPV8", "setting": "F1 hybrid maize plants; no CTP", "value": 45}, {"measurement": "Events with 20-50% injury", "setting": "[2]", "value": 19}, {"measurement": "Events with injury >50%", "setting": "[2]", "value": 0}, {"measurement": "Events with <20% injury", "setting": "[2]; about 2 weeks after application", "value": 3}]}]}
